{
  "source": "the nanobody polyreactivity screen of Harvey et al. (2022)",
  "data": [
    {"test": "yeast display, Sf9 membrane polyspecificity reagent, FACS + sequencing; frameworks hold sequencing errors", "in_short": "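Using colony PCR, genes from sorted yeast display clones were amplified, then sequenced on MiSeq at 2 × 250 and filtered by CDR length. The clones had been stained with 10% biotinylated, detergent-solubilized Sf9 membrane reagent for 1 hour at 4 °C and sorted by FACS into low and high (top ~1%) gates on anti-HA and streptavidin fluorescence. Polyreactivity labels come from the gate of origin.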", "values": [
      {"sequence": "QVQLVESGGGLVQAGGSLRLSCAASGSTFGANAMGWYRQAPGKEREFVAAISSGGRTNYADSVKGRFTISRDNAKNTVYLQMNSLKPEDTAVYYCAASFRRWYFYARHEYGYWGQGTQVTVSS", "polyreactivity (PSR sort gate)": "low polyreactivity"},
      {"sequence": "QVQLVESGGGLVQAGGSLRLSCAASGSTFGANAMGWYRQAPGKERELVAAITRGVRTHYADSVKGRFTISRDNAKNTVYLQMNSLKPEDTAVYYCNARSYPRWLRYDYWGQGTQVTVSS", "polyreactivity (PSR sort gate)": "low polyreactivity"},
      {"sequence": "QVQLVESGGGLVQAGGSLRLSCAASGSTFGANSMGWYRQAPGKERELVAAITYSSGSTRYADSVKGRFTISRDNAKTTVYLQMNILKPEDTAVYYCAARRTNYFKLGYWGQGTQVTVSS", "polyreactivity (PSR sort gate)": "high polyreactivity"},
      {"sequence": "QVQLVESGGGLVQAGGSLRLSCAASGSTFGDYAMGWYRQAPGKERELVAAISARGASTYYADSVKGRFTISRDNAKNTVYLQMNSLKPEDTAVYYCAARYVSSGRRFDYCGQGTQVTVSS", "polyreactivity (PSR sort gate)": "high polyreactivity"},
      {"sequence": "QVQLVESGGGLVQAGGSLRLSCAASGSTFGFNAMGWYRQAPGKERELLPLFWSGGSTYYADSVKGRFTISRDNAKNTVYLQMYSLKPEDTAVYYCNKDSPPITRYDYWGQGTQVTVSS", "polyreactivity (PSR sort gate)": "low polyreactivity"},
      {"sequence": "QVQLVESGGGLVQAGGSLRLSCAASGSTFGFYAMGWYRQAPGKERELVAAISRGGSTNYADSVKGRFTISRDNAKNTVYLQMNSLKPEDTAVYYCAKAYHATSDYWGQGTQVTVSS", "polyreactivity (PSR sort gate)": "low polyreactivity"},
      {"sequence": "QVQLVESGGGLVQAGGSLRLSCAASGSTFGFYAMGWYRQAPGKERELVAAISSAARTYYADSVKGRFTISRDNAKNTVYLQMNSLKPEDTAVYYCSAEAYHWTSYIGYGGVYYWGQGTQVTVSS", "polyreactivity (PSR sort gate)": "low polyreactivity"},
      {"sequence": "QVQLVESGGGLVQAGGSLRLSCAASGSTFGFYTMGWYRQAPGKERELVAAISRGGGRTYYADSVKGRFTISRDNAKNTVYLQMNSLKPEDTAVYYCAARSTQGRFEYWGQGTQVTVSS", "polyreactivity (PSR sort gate)": "high polyreactivity"},
      {"sequence": "QVQLVESGGGLVQAGGSLRLSCAASGSTFGGNAMGWYRQAPGKERELVAAIDSGGSTYADSVKGRFTISRDNAKNTVYFQMNSLKPEDTAVYYCAAVWEFVHYWRFDYWGQGTQVTVSS", "polyreactivity (PSR sort gate)": "low polyreactivity"},
      {"sequence": "QVQLVESGGGLVQAGGSLRLSCAASGSTFGGNAMGWYRQAPGKERELVAAITIGGRTNYADSVKGRFTISRDYAKNTVYLQMNSLKPEDTAVYYCAKDRDQWQDYWGQGTQVTVSS", "polyreactivity (PSR sort gate)": "low polyreactivity"},
      {"sequence": "QVQLVESGGGLVQAGGSLRLSCAASGSTFGGNAMGWYRQAPGKERELVASISSSGGRTYYADSVKGRFTISRDNAKNTVYLQMNSLKPEDTAVYYCAAKAWYPRVGFLRGGYWGQGTQVTVSS", "polyreactivity (PSR sort gate)": "high polyreactivity"},
      {"sequence": "QVQLVESGGGLVQAGGSLRLSCAASGSTFGGYAMGWYRPAPGKERELVAAISGGGRTYYADSVKGRFTISRDNAKNTVYLQMNSLKPADTAVYYCNAGYWFGYRLFTGYYWGQGTQVTVSS", "polyreactivity (PSR sort gate)": "low polyreactivity"},
      {"sequence": "QVQLVESGGGLVQAGGSLRLSCAASGSTFGGYAMGWYRQAPGKERELVAAISSSGGITYYADSVKGRFTISRDNAKNTVYLQMNSLKPEDTAVYYCAAPLGGGARWGRWWLYDSWGQGTQVTVSS", "polyreactivity (PSR sort gate)": "low polyreactivity"},
      {"sequence": "QVQLVESGGGLVQAGGSLRLSCAASGSTFGGYAMGWYRQAPGKERELVAAITSRGGSTYYADSVKGRFTISRDNAKNTVYLQMNSLKPEDTAVYYCATGLPKRDRRARIRYEYWGQGTQVTVSS", "polyreactivity (PSR sort gate)": "low polyreactivity"},
      {"sequence": "QVQLVESGGGLVQAGGSLRLSCAASGSTFGGYSMGWYRQAPGKERELVAAITYSGGSTYYADSVKGRFTISGDIAQNTVYLQMKSLKPEDTAFYYCNADDDDALPWWWPYVLDVDYWGQGTQVTVSS", "polyreactivity (PSR sort gate)": "low polyreactivity"},
      {"sequence": "QVQLVESGGGLVQAGGSLRLSCAASGSTFGGYVMGWYRQAPGKERELVAAISGNGASTTYADSVKGRFTISRDNAKSTFYLQLNSVKPEDTAVYYCGAMYRKAHSDYDYWGQGTQVTVSS", "polyreactivity (PSR sort gate)": "low polyreactivity"},
      {"sequence": "QVQLVESGGGLVQAGGSLRLSCAASGSTFGHNVMGWYRQSPGKERELVAAISTSGGRTYYADSVKGRFTISRDNAKNTVYLQMNSLKPEDTAVYYCAARVYSTSVVAYYYWGQGTQVTVSS", "polyreactivity (PSR sort gate)": "high polyreactivity"},
      {"sequence": "QVQLVESGGGLVQAGGSLRLSCAASGSTFGINAMGGYRPAPGKERELVAAITASGGRTYYADSVKGRFTISRDNAKNTVYLQMNSLKPEDTAVYYCAAGFYPYYYWGQGTQVTVSS", "polyreactivity (PSR sort gate)": "low polyreactivity"},
      {"sequence": "QVQLVESGGGLVQAGGSLRLSCAASGSTFGINAMGWYRQAPGKERELVASITRRGGSTYYADSVKGRFTISRDNAKNTVYLQMNSLKTEDTAVYYFNKTYRYGTPLYDYWGQGTQVTVSS", "polyreactivity (PSR sort gate)": "high polyreactivity"},
      {"sequence": "QVQLVESGGGLVQAGGSLRLSCAASGSTFGINAMGWYRQSPGKERELVAAISSRGGRTYYADSVKGRFTISRDNAKNTVYLQMNSLKPEDTAVYYCNAVYGRVKGRGVGFKPQYDSWGQGTQVTVSS", "polyreactivity (PSR sort gate)": "high polyreactivity"},
      {"sequence": "QVQLVESGGGLVQAGGSLRLSCAASGSTFGIYDMGWYRQAPGKERELVAAITSGGDTNYADSVKGRFTISRDNAKNTVYFQKNSLKPEDTAVYYCNARDGGQGNYSARYDYWGQGTQVTVSS", "polyreactivity (PSR sort gate)": "low polyreactivity"},
      {"sequence": "QVQLVESGGGLVQAGGSLRLSCAASGSTFGKNAMGWYRQAPGKERELVAAISTSGTRTFFADSVKGRFTISRDNAKNTVYLQMNSLKPEDTAFYYWNAGRSSRAYYYWGQGTQVTVSS", "polyreactivity (PSR sort gate)": "high polyreactivity"},
      {"sequence": "QVQLVESGGGLVQAGGSLRLSCAASGSTFGKNAMGWYRQAPGKERELVAAITRGSGSTYYADSVKGRFTISRDNAKNTVYLQMNSLKPEDTAVYYCAARRYRLSTPEFNYWGQGTQVTVSS", "polyreactivity (PSR sort gate)": "high polyreactivity"},
      {"sequence": "QVQLVESGGGLVQAGGSLRLSCAASGSTFGKYAMGWYRQAPGKEREFVAGISWSADSTYYADSVKGRFTISRDNAKNTVYLQMNSLKPEDTAFYYCATDGSSDEFRPEYDYWGQGTQVTVSS", "polyreactivity (PSR sort gate)": "low polyreactivity"},
      {"sequence": "QVQLVESGGGLVQAGGSLRLSCAASGSTFGKYVMGWYRQAPGKERELVAAISRSGGSTYYADYVKGRFTISRDNAMNTVYLQMNSLKPEDTAVYYCNAVVYFVGDFDYWGQGTQVSVSS", "polyreactivity (PSR sort gate)": "high polyreactivity"},
      {"sequence": "QVQLVESGGGLVQAGGSLRLSCAASGSTFGLYAMGWYRQAPGKERELVAAISGGSGRTYYADSVKGRFTISRDNAKNTVYLQMNSLKPEDTAVYYCAAVPVYRHEYDYWGQGTQVTVSS", "polyreactivity (PSR sort gate)": "low polyreactivity"},
      {"sequence": "QVQLVESGGGLVQAGGSLRLSCAASGSTFGLYAMGWYRQAPGKERELVAAISSRGSRTYYADSVKGRFTISRDNAKNTVYLQMNSLKPEDTAVYYCNALYASSVRHKVTYDYWGQGTQVTVSS", "polyreactivity (PSR sort gate)": "high polyreactivity"},
      {"sequence": "QVQLVESGGGLVQAGGSLRLSCAASGSTFGLYAMGWYRQAPGKERELVADITWSGGSTYYADSVKGRFTISRDNAKNTVYLQMNSMKPEDTAVYYCAARYAWVYYDFDYCGQGTQVTVSS", "polyreactivity (PSR sort gate)": "low polyreactivity"},
      {"sequence": "QVQLVESGGGLVQAGGSLRLSCAASGSTFGLYAMGWYRQAPVKEREFVAAISWRTGSTYYADSVKGRFTISRDTAKNTVYLQMNSLKPEDTAVYYCNAPYFYSRYSPDDYWGQGTQVTVSS", "polyreactivity (PSR sort gate)": "high polyreactivity"},
      {"sequence": "QVQLVESGGGLVQAGGSLRLSCAASGSTFGMNAMGWYRQAPGKERELVAAIDSSGGTTYYADSVKGRFTISRDHAKNTVYLQMNSRKPEDTAVYYCAADDNYYTFGYWGQGSQVTVSS", "polyreactivity (PSR sort gate)": "high polyreactivity"},
      {"sequence": "QVQLVESGGGLVQAGGSLRLSCAASGSTFGNAMGWYSQAPGKERELVAAISGSGSDTYYADSVKGRFTISRDNAKNPVYLQMNSLKPEDTAVYSWATETHRLDKGTDYGYDYWGQGTQVTVSS", "polyreactivity (PSR sort gate)": "low polyreactivity"},
      {"sequence": "QVQLVESGGGLVQAGGSLRLSCAASGSTFGPNAMGWYRKAPGKERELVAALSKRGGRTDYADSVKGRFTISRDNAKNTVYLQMNSLKPEDTAVYYCNARDGSYYQGDYWGQGNQVTVSS", "polyreactivity (PSR sort gate)": "high polyreactivity"},
      {"sequence": "QVQLVESGGGLVQAGGSLRLSCAASGSTFGPNAMGWYRQAPGKERELVAAIRSNGGRTYYADSVKGRFTISRDNAKNTVYLQMNSLKPEDTAVYYCAAPHYPYDTPYGYWGQGTQVTVSS", "polyreactivity (PSR sort gate)": "low polyreactivity"},
      {"sequence": "QVQLVESGGGLVQAGGSLRLSCAASGSTFGPNAMGWYRQAPGKERELVAAIRSQGGRTYYAYSVKGRFTISRDNAKNSVYLQMNSLIPEDTAVYYCGDPHYPYDTPYGYWGQGTQVTVSS", "polyreactivity (PSR sort gate)": "low polyreactivity"},
      {"sequence": "QVQLVESGGGLVQAGGSLRLSCAASGSTFGPNTMGWYRQAPRKERELVAAITSTGSTYYADSVKGRFTISRDNAKNTVYLQMNSLKPEDTAVYYCAARRYYGVYYAFYYWGQGTQVTVSS", "polyreactivity (PSR sort gate)": "high polyreactivity"},
      {"sequence": "QVQLVESGGGLVQAGGSLRLSCAASGSTFGPYAMGWYRQAPGKERELVAAITLSGGSTYYADSVKGRFTISRDYAKNTVYLQLNRLKPEYTAVYYCAAEYDRVDEDDYWGQGTQVTVSS", "polyreactivity (PSR sort gate)": "high polyreactivity"},
      {"sequence": "QVQLVESGGGLVQAGGSLRLSCAASGSTFGPYAMGWYRQAPGKEREMVAAISKTGGRTYYADSVKGRFTISRDNAKNTVYLQMHSLKPEDTAVYYCAADVGTAQSTYGYWGQGTQVTVSS", "polyreactivity (PSR sort gate)": "high polyreactivity"},
      {"sequence": "QVQLVESGGGLVQAGGSLRLSCAASGSTFGPYAMGWYRQAPGKEVELVAAITASVGSTYYAESVKGRFTISRDNAKNTVYLQMNSLKPEDTAVYYCNADLSYFFGPYWGLYGLDYWGQGTQVTVSS", "polyreactivity (PSR sort gate)": "low polyreactivity"},
      {"sequence": "QVQLVESGGGLVQAGGSLRLSCAASGSTFGPYTMGWYRQAPGKERELVAAISYSGASTYYADSVKGRFTISRDNAMNTVYLQMNSLKPEDTAVYYCNTVYRYTRARYPYDYWGQGTQVTVSS", "polyreactivity (PSR sort gate)": "high polyreactivity"},
      {"sequence": "QVQLVESGGGLVQAGGSLRLSCAASGSTFGPYVMGWYRQAPGKERELVAAISQSGGSTYYADSVKGRFTISRDNAKNTVYLQMNSLKPEDTAVYYCAAQTPYGMYYWGQGTQVTVSS", "polyreactivity (PSR sort gate)": "low polyreactivity"},
      {"sequence": "QVQLVESGGGLVQAGGSLRLSCAASGSTFGQYALGWYRQAPGKERELVATISSGSTYYADSVKGRFTISRDNAKNTVYLQMNSLKPEDTAVYYCAARRIHTTSSRGYYWGQGSQVTVSS", "polyreactivity (PSR sort gate)": "high polyreactivity"},
      {"sequence": "QVQLVESGGGLVQAGGSLRLSCAASGSTFGQYAMGWYRQAPGKERELVAAISRNGGRTYYADSVKGRFTISRDNAKNTVYLQMNSLKPEDTAVYYCAAGGFHYVYYRGMYYWGQGTQVTVSS", "polyreactivity (PSR sort gate)": "high polyreactivity"},
      {"sequence": "QVQLVESGGGLVQAGGSLRLSCAASGSTFGRNAMGWYRQAPGKERELVAAISTSGSRTYYADSVKGRFTISRDNAKNTVYLQMNSLKPEDTAVYYCNAYGVSRGSYGTRGYWGQGTQVTVSS", "polyreactivity (PSR sort gate)": "high polyreactivity"}
    ]}
  ]
}
